Assay results as given in patent publication US20160264684A1, “GLYCAN-INTERACTING COMPOUNDS AND METHODS OF USE” (SIAMAB THERAPEUTICS, INC., priority 2013, published 2016).

Tests used:
[1] = mouse, in vivo
Experimental: 50 female Balb/cmice were inoculated with E3-STn cells to cause STn-expressing tumor formation when they were 5 weeks old. Mice were housed in individually ventilated microisolator cages, and maintained under pathogen-free conditions with irradiated feed and autoclaved water. […] Beginning on the first day of the study, body weight and tumor volumes were recorded twice weekly. 33 mice with mean tumor volume between 100 and 150 mm^3 were selected for randomization.
Antibodies and vehicle control were administered by intraperitoneal injection, twice weekly for 7 weeks.
The average weight of mice in each treatment group was also determined on days 1, 5, 8, 12, 15, 19, 22, 26, 29, 33, 36, 40, 43, 47 and 50 following the first administration of each test article (see Table 19). The percent gain or loss over initial weight values is listed in parentheses.

[2] = Pathological evaluation of organs (H&E); assay type: in vivo, mouse
Experimental: At the end of the study described in Example 22, three mice from the vehicle control group and five mice that received 7G9-1A8 were chosen at random for post-study pathology assessment. Brain, colon, intestine, heart, kidney, liver, lung, mandibular salivary gland, pancreas, spleen, stomach, adrenal gland and thyroid gland organs were collected from each mouse. The organs were fixed in formalin (VWR; Radnor, Pa.) for about 48 hours, transferred to 70% ethanol (Sigma-Aldrich; St. Louis, Mo.), and then processed for standard H&E staining.
The H&E stained tissue slides were examined for pathology review. Liver sections from each animal had multifocal inflammation with or without concomitant hepatocellular necrosis. The histo-pathological changes were minimal to mild in severity. There was no appreciable difference in the morphology of lesions among vehicle control group mice and mice that received 7G9-1A8.

[3] = test system: E3-STn cells; test: E3-STn transfected murine breast tumor allograft model, tumor volume; assay type: in vivo, mouse; details: 7G9-1A8 25 mg/kg ip twice weekly 3 weeks, Paclitaxel daily 5 days
Experimental: 3 test articles were evaluated during the study.
Standard deviation values are listed in parenthesis.

[4] = E3-STn allograft model, complete blood count (CBC); assay type: in vivo, mouse; set-up: Red blood cells / White blood cells: unit not given here; details: CBC at end of study, antibody-treated mice
Experimental: At the end of the study, a complete blood count (CBC) was obtained for 5 mice treated with antibody as well as 3 mice treated with vehicle control. Blood was collected from all mice via terminal cardiac puncture and processed for plasma. Blood was placed in EDTA microtainer tubes (BD & Co., Franklin Lakes, N.J.) then centrifuged. Plasma layers were then removed and snap frozen in cryo vials (Thermo-Fisher Scientific, Rochester, N.Y.) and stored at −80° C. until analysis. Analysis was carried out to look for levels of a variety of factors.

B1: 7G9-1A8: 7G9-1A8 IgG2b κ antibody; heavy chain variable domain SEQ ID NO 12, light chain SEQ ID NO 9 (antibody, V domains shown)
VH: QVQLKESGPGLVAPSQNLSITCTVSGFSLTSYGVNWVRQPPGKGLEWLGVIWGDGSTNYHSALISRLIISKENSKSQVFLKLNSLQTNDTATYYCTKGFVYWGQGTLVTVSA
VL: QIVLTQSPAIMSASPGEKVTMTCSASSSVSYMHWYQQKSGTSPKRWIFDTSKLASGVPARFSGSGSGTSYSLTISSMEAEDAATYYCQQWSSNLLTFGAGTKLELK
[1]
  weight gain over the course of treatment as compared to vehicle control: higher percent gain in weight
[2]; 5 treated, 3 vehicle mice
  liver histo-pathology vs vehicle control group: no significant difference between the groups
[2]; seen in two vehicle control mice
  neutrophil aggregation in the muscularis mucosa of the stomach: not observed
[3]; day 1 of treatment
  Average Tumor Volume: 112.4 mm^3
[3]; day 4 of treatment
  Average Tumor Volume: 148.7 mm^3
[3]; day 6 of treatment
  Average Tumor Volume: 161.9 mm^3
[3]; day 8 of treatment
  Average Tumor Volume: 152.8 mm^3
[3]; day 11 of treatment
  Average Tumor Volume: 136.3 mm^3
[3]; day 13 of treatment
  Average Tumor Volume: 118.4 mm^3
[3]; day 15 of treatment
  Average Tumor Volume: 105.1 mm^3
[3]; day 18 of treatment
  Average Tumor Volume: 99.5 mm^3
[3]; day 20 of treatment
  Average Tumor Volume: 91.7 mm^3
[3]; day 22
  Average Tumor Volume: 105.2 mm^3
[3]; day 26
  Average Tumor Volume: 102.8 mm^3
[3]; day 27
  Average Tumor Volume: 107.4 mm^3
[3]; day 29
  Average Tumor Volume: 147.1 mm^3
[3]; day 32
  Average Tumor Volume: 160.6 mm^3
[3]; day 34
  Average Tumor Volume: 164.7 mm^3
[3]; day 36
  Average Tumor Volume: 212.1 mm^3
[3]; day 39
  Average Tumor Volume: 206.6 mm^3
[3]; day 41
  Average Tumor Volume: 235.3 mm^3
[4]
  % Lymphocytes: 44.4%
  % Monocytes: 4.6%
  % Neutrophils (Segmented): 51.0%
  Hematocrit: 46.9%
  Hemoglobin: 16.0 g/dL
  Lymphocytes: 5.6 10^9/L
  Mean Corpuscular Hemoglobin: 16.2 pg
  Mean Corpuscular Hemoglobin Concentration: 34.2 g/dL
  Mean Corpuscular Volume: 47.4 fL
  Mean platelet volume: 7.4 fL
  Monocytes: 0.7 10^9/L
  Neutrophils: 7.6 10^9/L
  Platelet Cell Distribution Width: 32.2%
  Platelet count: 712.2 10^3
  Red Cell Distribution Width: 19.0%
  Red blood cells: 9.9
[4]; blood by terminal cardiac puncture
  White blood cells: 13.9
